Source: the DeepSol protein solubility set

Assay: soluble on expression in E. coli; label from the status in PepcDB or PDB records

Sequence | soluble on expression in E. coli
MSLTNDIYDKGLAIRKEVVGVDSVERSLRDATEYTAPFQALATEYCWGRVWGRDELDRRTRSIANIAMMIALNRAPELRIHIKGALTNGVPRKEIAEVILQSAVYCGIPAAGDAFRQMQSVFDEADAAAACAPASPAARKSIAVIGLGAMGYPMAAQLVRAGHDVRPYDANPAVLARFAEEFNTGVAPIASCVAGADFVVTVLPDSTVVTRVLDGDNGSGGVAARIKPGATLIDMTSGDPATTRALAARLGEAGVRMIDAPVSGGFVKARTGELAIMVGGEADTVAAAMDILQAMGTSIAHVGPIGAGHTVKALNNYISAIGWLAVIEAIHTGKRFGLDVATMNRIFNQSSGRNSSTANKVEQAVLSGTYHTGFSLALMAKDVGIAVGLARQMGVDAEVGTLAHRIIQTAFDQSAEKDLDNSRLFDILYSEGHHHHHH | not soluble
MEKLRVGIVFGGKSAEHEVSLQSAKNIVDAIDKSRFDVVLLGIDKQGQWHVSDASNYLLNADDPAHIALRPSATSLAQVPGKHEHQLIDAQNGQPLPTVDVIFPIVHGTLGEDGSLQGMLRVANLPFVGSDVLASAACMDKDVTKRLLRDAGLNIAPFITLTRANRHNISFAEVESKLGLPLFVKPANQGSSVGVSKVTSEEQYAIAVDLAFEFDHKVIVEQGIKGREIECAVLGNDNPQASTCGEIVLTSDFYAYDTKYIDEDGAKVVVPAAIAPEINDKIRAIAVQAYQTLGCAGMARVDVFLTPENEVVINEINTLPGFTNISMYPKLWQASGLGYTDLITRLIELALERHAADNALKTTM | soluble
MSRIIALIISFLLVGCATPPMPAQRIVGEVRMSRPLSRIAHIDVSMFGLYEGKVREVQRTHFETGNLPLFFSIKLNPAQRGEGELYLRSTLSFPERGVQAVAQQKLTGKNKVVLQMIPKTCYPNCQLPNTR | not soluble
MEPVLFYGVPHGCSFGSIVALEWLGRPYRLCRIEMPLDTGERTYVRLNPARQTPTLLLEDGRALSESLAILQHLAARDLCRKLGYPQGSAEFDELNFALALLHTECHSAWGALFYLEDADATTTARALTRAARAYGRIDKLLGDRKWLAGEGPSVADAYLAGTARWGRELGYFDLQHDFPRLHRHLEKLEQDPAVRFAHAIEDRLPAQSCGEFRGEVTLAEVASRLLA | not soluble
MDTKPPIERSMYIELRTSLEMFRGDLVDLEALANASRDALDQLPFVPKGAKTDHDEAHPNPDPESALRSGRLDSLVCATASAAQSALVTCVKLIDWAYEYEPDDEDDDDDDMVPMDDIDDDDDDDDDDENGGSSGANGGGSNGSGRSGPPDDNGAGAASASVADEFANARPSRGGIVLDLPTRASTTDGPVDAR | not soluble
MKLYSILVFHKNVDTSDVKLFKSECDLSSFSFFQRGSVQEFMTFTAKLLVERSGLGARSSVKENEYLVHCYVRNDGLSAVCVTDAEYQQRVAMSFLGRVLDDFTTRVPATQWPGIRSDKDCSYTGLKDLLEKWQNPREADPMTRVQEEVEETKMVMHNTIQSVLDRGEKLDDLVKKSENLSDQSKMFYTSARKMNKCCNYV | not soluble
MTSSATSPTNGVDKNKNEEMVATPANCPYQLFNQEVVWNGKWIQTRQVGFKTHTGQVGVWQSVHRNTKPVEASADGVSIIARVRKQGKLYIVLVKQYRIPCGKLCLELPAGLIDAGETAQQAAIRELKEETGYVSGKVVMESKLCFLDPGLTDDSQCLVVVDVDGDAPENQNPVQVLDSTESIEVLLVEQSALMAYVTNLDSSSIVVESTLLAYAMGIQFATI | not soluble
MGSDKIHHHHHHMIKLKKVLVLGGTRFFGKHLVEALLQDGHDVTIATRGITEDSFGSRVKRLIVDREDEKQLAERLADKSYDIVYDNLCYSSNAAKIICEVLRGKTTKYVMTSSMAVYEPALSLSEEDFDPYEYAIAYGDRNDFNYGEGKRLAEAVVFQQATFPVVAVRFPVVIGENDYTKRLQFYVEHIVREEPVAVNHLDGKLSFIHEEEAGEFLAWCGMKDIEGPINACSNGVVSTREIIHFIEENTGIKSLIQEVGDHVAPYNEVTNCTLHNGKANELGFPFRGLKIEIEKVLCYYIHAMK | not soluble
MSLTRRNDAIAVVVTEPQNRLFVDPFFDRHLRGIRQELVRQGAQLVLLLIEEPDDYPRVGNFLGGGHVDGALLFSLRGDDPLPEMVDRMGLPAVFGGRPVLSPEDRGHRYTYVDADNRGGAREAVRHLVAQGRERIATITGPLNQAAAVDRLDGYRDVLPDSAPDLIVEGDFTLRGGVDAMAELLARCPDLDAVFAASDLMACGALRVLKEHGRRVPEDVAVIGFDDLPPLVETTEPSLTTVHQDIEGMGRLMARLLFERIPATPLDDGDHSLHRVITPTRLILRKTAEGHHHHHH | not soluble
MEYNLDLARAFLQKHRIAVVEPNPPYLQFSEAQLAQQKAKLAKNLQISTACKWLFVHASTGGSATSLSIEQYAQMLNGIASETNCEIVLTAGKGESEKAYQLAAQITATKAVVYDKNDGLQDFARSIACADLFIAGSTGPLHIAGALNVATIGFYPSRLSALPRRWRPINEEGKHLEHHHHHH | not soluble
MGSDKIHHHHHHMAKAKTQYVCQNCGYISATYLGRCPNCGGWNTLVEETVSSSKSVPRQTAAGSKVKPTRMNDVTITKETRVKTGLDELNRVLGGGVVPGSLVLIGGDPGIGKSTLLLQVSGQLANTGGTVLYVSGEESASQIKMRAGRLGVANSGMYLYPETDMPSIEDVINQMQPDYVVIDSVQTMNVPEMNSAVGSVTQIREVTAELMRIAKSKGVTIFIVGHVTKEGAIAGPKILEHMVDTVLYFEGDMHHTYRILRSVKNRFGSTNEIGIFEMHQDGLQEVANPSEIFLEERLAGATGSAVVVSMEGTRPILVEIQALISPTMYGNAKRTSSGLDHNRVSLIMAVLEKRANLMLQNQDAYLKATGGVKLDEPAIDLAMAVAIASSYRDKEISPTDCFVGEIGLTGEVRRVNRIEERVKEAAKLGFKRIFVPRNNLQGWHAPKDIQVIGVTSIAEALHKVFN | not soluble
MGSDKIHHHHHHMSILNLFRKNKNKNNIDFNEKSNKSKQTSNNTMTPSQEYNSISTHNVEVKNEINKVLNVSYNDTTNLYELEKQAREKSDALYDIHTNSINKFNPQNNILETDTKPLTSIEKSFLKYIIGENIYEPYIATYWTYEYNINYSYLISKFFNMDYLKISNYIEDLTKLTVSELKEILKSNNIKSTGKKAELIERIEKEISCKDLSNFFNSSNKYYALTDKGKELLKDVRKSVTKNTDLEDQCLELIYIDKYEEAYDLICKYESSKNIQRGININWENHKITPMKIESYKAIKELDINLKDTLLDNIIKSSYILCDMLGNNSKTSILVKRLAGEKIDNIEINNAINSINDVIYNHSTITYNANDSINNKNLHYMDIVKNNKSIPFEVNNKNYNFKINENEIYFFNILKIKMYENELKNNFVFDRMSDGAFNVFDTSDNFIGKVKLQGRKKWIMYMKNEFGSEHIYGELIHLIDGIDAWIKYSKEYLK | not soluble
MATQSDLMELEMAMDPDRKAAVSHWQQQSYLDSGIHSGATTTAPSLSGKGNPEDDDVDNQVLYEWEQGFNQSFNQEQVADIDGQYAMTRAQRVRAAMFPETLDEGMQIPSTQFDSAHPTNVQRLAEPSQMLKHAVVNLINYQDDAELATRAIPELTKLLNDEDQVVVNKAAVMVHQLSKKEASRHAIMRSPQMVSAIVRTMQNTNDVETARCTSGTLHNLSHHREGLLAIFKSGGIPALVNMLGSPVDSVLFHAITTLHNLLLHQEGAKMAVRLAGGLQKMVALLNKTNVKFLAITTDCLQILAYGNQESKLIILASGGPQALVNIMRTYTYEKLLWTTSRVLKVLSVCSSNKPAIVEAGGMQALGLHLTDPSQRLVQNCLWTLRNLSDAATKQEGMEGLLGTLVQLLGSDDINVVTCAAGILSNLTCNNYKNKMMVCQVGGIEALVRTVLRAGDREDITEPAICALRHLTSRHQDAEMAQNAVRLHYGLPVVVKLLHPPSHWPLIKATVGLIRNLALCPANHAPLREQGAIPRLVQLLVRAHQDTQRRTSMGGTQQQFVEGVRMEEIVEACTGALHILARDIHNRIVIRGLNTIPLFVQLLYSPIENIQRVAAGVLCELAQDKEAAEAIEAEGATAPLTELLHSRNEGVATYAAAVLFRMSEDKPQDYKKRLSVELTSSLFRTEPMTWNETGDLGLDIGAQGEPLGYRQDDPSYRSFHSGGYGQDAMGMDPMMEHEMAGHHPGPDYPVDGLPDLGHTQDLIDGLPPGDSNQLAWFDTDL | soluble
MSLSLEEALLFREATVTDLKSIMNVENAAFTVPWTEAAFRNEFIINQYAYYLLAIYKEQVVGYAGVWLVLDEGHITNIAIHPDYQGNHYGEALLREMIRVAKERGVVRMTLEVRVSNDVAQGLYKKLGFQDGAIRKNYYPDTKEDALVMWVDLEGHHHHHH | soluble
MGSDKIHHHHHHMEESPLSRAPSRGGVNFLNVARTYIPNTKVECHYTLPPGTMPSASDWIGIFKVEAACVRDYHTFVWSSVPESTTDGSPIHTSVQFQASYLPKPGAQLYQFRYVNRQGQVCGQSPPFQFREPRPMDELVTLEEADGGSDILLVVPKATVLQNQLDESQQERNDLMQLKLQLEGQVTELRSRVQELERALATARQEHTELMEQYKGISRSHGEITEERDILSRQQGDHVARILELEDDIQTISEKVLTKEVELDRLRDTVKALTREQEKLLGQLKEVQADKEQSEAELQVAQQENHHLNLDLKEAKSWQEEQSAQAQRLKDKVAQMKDTLGQAQQRVAELEPLKEQLRGAQELAASSQQKATLLGEELASAAAARDRTIAELHRSRLEVAEVNGRLAELGLHLKEEKCQWSKERAGLLQSVEAEKDKILKLSAEILRLEKAVQEERTQNQVFKTELAREKDSSLVQLSESKRELTELRSALRVLQKEKEQLQEEKQELLEYMRKLEARLEKVADEKWNEDATTEDEEAAVGLSCPAALTDSEDESPEDMRLPPYGLCERGDPGSSPAGPREASPLVVISQPAPISPHLSGPAEDSSSDSEAEDEKSVLMAAVQSGGEEANLLLPELGSAFYDMASGFTVGTLSETSTGGPATPTWKECPICKERFPAESDKDALEDHMDGHFFFSTQDPFTFE | not soluble
QSILQDLFLLLIKFPKEEKTVEVFDTSPKIQLSNYEQYRQDALLAKAEGEQNKINTVLSYTEKTLAPYVVESELSNLCTQISHFLSSDWKEEECREIKISSQLKSIDLMHFGWNIAQPFGKSRKEISTFLKYTFAHALEDVEVSTLQRKLTNTEGKFLIPLQEKLSTESYSSS | not soluble
MHYQPKQDLLQNRIILVTGASDGIGREAALTYARYGATVILLGRNEEKLRRVAQHIADEQHVQPQWFTLDLLTCTAEECRQVADRIAAHYPRLDGVLHNAGLLGEIGPMSEQDPQIWQDVMQVNVNATFMLTQALLPLLLKSDAGSLVFTSSSVGRQGRANWGAYATSKFATEGMMQVLADEYQNRSLRVNCINPGGTRTSMRASAFPTEDPQKLKTPADIMPLYLWLMGDDSRRKTGMTFDAQPGRKPGIAQ | not soluble
MSQYSNMYKFEIDIQGNLEEVYGRIFSVLKQAGYIILSYVDVAEILQRTMQKKIDPLYILNICKPAAANEFISESYETSMFIPCKLVLHQMGENTRVSLQLISPQIETFTDLSTDVAKKYENEIVDILKKM | not soluble
MSTDNLLQPKLIEATLGDYPVIQNMARFYVYDMSRYCGFISEEWTCPPDGLYESYDFKIYFTDPERKAFLIQIDNELAGFALLNKFGIQAVDWSMGEFFILAKFQGKGIGQSVAHQLWRTHPGEWEISVIPENIPALSFWRQAVMTYTLGRYKEQIKTVNYDIHQTQRIILSFNTQKQNKSCHSIPKKPITIDFVDNIPKSLEKKMTEDLIAYERTHGIDVNYKRFSIVLSEEGVTCGVINAFTAFAEIYIDDIWVDKAYRGKGYGKKLLQTLENHFKGQGFNNINLCTSAFQAPEFYRKCGYTAEFTRINQANPKLSKTFFVKFFDDENQTQGLF | soluble
